Test results reported in the supplement of paper PMC10065799, “High-throughput profiling of sequence recognition by tyrosine kinases and SH2 domains using bacterial peptide display” (eLife, 2023).

Tests used:
Fyn = Fyn (UniProt P06241); test: phosphorylation enrichment, bacterial display (enrichment ratio); higher = better substrate or ligand; peptides without Tyr show the background
FGFR1 = FGFR1 (UniProt P11362); test: as above
Jak2 = Jak2 (UniProt O60674); test: as above
FGFR3 = FGFR3 (UniProt P22607); test: as above
Fer (mouse) = test: as above
c-Abl (mouse) = test: as above
Fes = Fes (UniProt P07332); test: as above
c-Src = test: as above
EPHB1 = EPHB1 (UniProt P54762); test: as above
AncSZ = test: as above
EPHB2 = EPHB2 (UniProt P29323); test: as above
MERTK = MERTK (UniProt Q12866); test: as above
Hck = Hck (UniProt P08631); test: as above
Grb2 SH2 = Grb2 SH2 (UniProt P62993); test: SH2 binding enrichment of the phosphorylated peptide, bacterial display (enrichment ratio); higher = better substrate or ligand; peptides without Tyr show the background
c-Src SH2 = test: as above
SHP2-C SH2 = test: as above
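For SH2 binding enrichment of the phosphorylated peptide, bacterial display in this document: peptide library displayed on the E. coli surface as eCPX fusions, selected cells deep-sequenced, score is each peptide's frequency after selection divided by its frequency in the input.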
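For phosphorylation enrichment, bacterial display in this document: 11-residue human phosphosite peptides and single-mutation variants displayed on the E. coli surface, counted by deep sequencing, each peptide's frequency after selection divided by its frequency in the unselected input library; frequency after pTyr selection over input frequency; kinase dosed for 20-30% of maximal phosphorylation in three min.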

Fes, sequence (P07332 whole entry, looked up): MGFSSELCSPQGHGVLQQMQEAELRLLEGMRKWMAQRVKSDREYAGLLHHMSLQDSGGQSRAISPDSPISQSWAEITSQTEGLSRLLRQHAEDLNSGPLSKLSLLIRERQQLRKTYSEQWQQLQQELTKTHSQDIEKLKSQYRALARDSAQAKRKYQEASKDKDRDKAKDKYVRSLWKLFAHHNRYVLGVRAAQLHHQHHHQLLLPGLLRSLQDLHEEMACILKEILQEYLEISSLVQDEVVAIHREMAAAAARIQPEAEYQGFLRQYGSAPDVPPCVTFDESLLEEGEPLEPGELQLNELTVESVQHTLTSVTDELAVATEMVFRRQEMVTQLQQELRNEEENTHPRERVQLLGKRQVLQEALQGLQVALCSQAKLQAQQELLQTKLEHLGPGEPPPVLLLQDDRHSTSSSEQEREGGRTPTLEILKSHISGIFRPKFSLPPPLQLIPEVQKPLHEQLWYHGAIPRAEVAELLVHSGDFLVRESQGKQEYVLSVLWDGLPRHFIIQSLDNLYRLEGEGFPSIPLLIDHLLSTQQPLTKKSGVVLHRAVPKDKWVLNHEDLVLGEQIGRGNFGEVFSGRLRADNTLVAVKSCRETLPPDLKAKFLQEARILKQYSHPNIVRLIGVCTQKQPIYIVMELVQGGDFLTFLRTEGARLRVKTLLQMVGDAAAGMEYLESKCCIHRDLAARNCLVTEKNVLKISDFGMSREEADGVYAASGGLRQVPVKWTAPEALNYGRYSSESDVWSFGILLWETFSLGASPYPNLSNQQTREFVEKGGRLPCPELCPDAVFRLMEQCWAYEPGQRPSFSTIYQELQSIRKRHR
Jak2, sequence (O60674 whole entry, looked up): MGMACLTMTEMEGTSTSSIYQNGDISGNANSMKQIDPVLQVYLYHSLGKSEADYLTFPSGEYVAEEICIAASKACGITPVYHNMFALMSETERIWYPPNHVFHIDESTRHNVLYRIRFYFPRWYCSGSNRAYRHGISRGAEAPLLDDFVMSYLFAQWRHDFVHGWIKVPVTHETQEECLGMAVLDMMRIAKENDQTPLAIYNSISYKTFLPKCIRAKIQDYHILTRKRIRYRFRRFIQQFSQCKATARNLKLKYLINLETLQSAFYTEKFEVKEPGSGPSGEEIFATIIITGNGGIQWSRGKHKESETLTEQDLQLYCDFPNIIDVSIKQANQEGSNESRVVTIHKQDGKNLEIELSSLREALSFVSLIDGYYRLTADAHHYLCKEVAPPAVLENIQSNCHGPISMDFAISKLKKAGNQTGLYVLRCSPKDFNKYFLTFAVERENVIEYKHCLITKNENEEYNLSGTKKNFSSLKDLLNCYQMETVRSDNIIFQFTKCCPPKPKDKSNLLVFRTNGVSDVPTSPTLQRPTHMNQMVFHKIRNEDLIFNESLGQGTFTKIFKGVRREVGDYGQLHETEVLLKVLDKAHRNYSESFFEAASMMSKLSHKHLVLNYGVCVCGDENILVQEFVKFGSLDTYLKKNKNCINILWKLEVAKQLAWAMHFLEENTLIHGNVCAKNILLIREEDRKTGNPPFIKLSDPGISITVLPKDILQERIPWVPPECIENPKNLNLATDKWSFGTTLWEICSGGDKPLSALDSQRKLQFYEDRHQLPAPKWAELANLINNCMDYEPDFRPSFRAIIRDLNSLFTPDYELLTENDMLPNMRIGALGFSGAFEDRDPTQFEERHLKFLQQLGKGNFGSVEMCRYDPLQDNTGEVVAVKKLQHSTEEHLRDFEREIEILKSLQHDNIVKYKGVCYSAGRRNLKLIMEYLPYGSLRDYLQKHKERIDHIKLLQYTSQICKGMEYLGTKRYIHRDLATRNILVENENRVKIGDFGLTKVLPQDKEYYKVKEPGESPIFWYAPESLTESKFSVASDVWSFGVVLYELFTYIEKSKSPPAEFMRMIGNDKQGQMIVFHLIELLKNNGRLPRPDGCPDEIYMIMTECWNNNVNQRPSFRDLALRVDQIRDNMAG
FGFR3, sequence (P22607 whole entry, looked up): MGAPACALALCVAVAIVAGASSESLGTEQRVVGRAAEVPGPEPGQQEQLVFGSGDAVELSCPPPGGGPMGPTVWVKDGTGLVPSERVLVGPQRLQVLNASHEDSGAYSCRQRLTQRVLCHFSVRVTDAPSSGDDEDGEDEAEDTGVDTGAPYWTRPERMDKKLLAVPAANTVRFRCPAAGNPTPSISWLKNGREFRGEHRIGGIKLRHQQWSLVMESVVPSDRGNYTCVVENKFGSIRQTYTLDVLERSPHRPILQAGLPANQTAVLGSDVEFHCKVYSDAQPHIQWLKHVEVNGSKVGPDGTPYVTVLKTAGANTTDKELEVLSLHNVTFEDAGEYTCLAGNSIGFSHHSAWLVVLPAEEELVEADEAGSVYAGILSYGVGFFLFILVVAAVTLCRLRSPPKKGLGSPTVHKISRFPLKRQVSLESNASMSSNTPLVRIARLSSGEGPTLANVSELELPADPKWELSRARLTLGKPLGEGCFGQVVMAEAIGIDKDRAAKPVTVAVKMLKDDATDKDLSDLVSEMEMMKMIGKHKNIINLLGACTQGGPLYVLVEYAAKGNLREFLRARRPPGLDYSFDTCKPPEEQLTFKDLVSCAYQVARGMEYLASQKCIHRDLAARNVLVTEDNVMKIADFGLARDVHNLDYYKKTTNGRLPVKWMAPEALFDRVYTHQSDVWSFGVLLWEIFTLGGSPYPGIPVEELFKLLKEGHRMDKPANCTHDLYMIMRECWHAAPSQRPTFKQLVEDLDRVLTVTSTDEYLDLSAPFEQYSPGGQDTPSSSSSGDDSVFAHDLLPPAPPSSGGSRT
Fyn, sequence (P06241 whole entry, looked up): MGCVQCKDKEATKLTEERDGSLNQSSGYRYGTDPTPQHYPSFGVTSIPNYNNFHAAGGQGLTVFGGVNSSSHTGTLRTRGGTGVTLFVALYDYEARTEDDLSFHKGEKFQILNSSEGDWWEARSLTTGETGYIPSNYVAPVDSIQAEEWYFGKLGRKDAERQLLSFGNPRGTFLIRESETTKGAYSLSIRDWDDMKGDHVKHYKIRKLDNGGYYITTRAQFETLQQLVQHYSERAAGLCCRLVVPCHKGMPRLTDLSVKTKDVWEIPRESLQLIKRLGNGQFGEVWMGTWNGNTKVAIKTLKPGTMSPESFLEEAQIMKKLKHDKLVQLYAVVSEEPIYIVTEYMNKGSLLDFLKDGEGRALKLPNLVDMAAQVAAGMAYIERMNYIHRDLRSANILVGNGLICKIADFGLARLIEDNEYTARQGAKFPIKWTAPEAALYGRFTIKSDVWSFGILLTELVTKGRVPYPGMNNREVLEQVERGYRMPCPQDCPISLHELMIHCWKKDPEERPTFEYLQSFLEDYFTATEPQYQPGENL
Hck, sequence (P08631 whole entry, looked up): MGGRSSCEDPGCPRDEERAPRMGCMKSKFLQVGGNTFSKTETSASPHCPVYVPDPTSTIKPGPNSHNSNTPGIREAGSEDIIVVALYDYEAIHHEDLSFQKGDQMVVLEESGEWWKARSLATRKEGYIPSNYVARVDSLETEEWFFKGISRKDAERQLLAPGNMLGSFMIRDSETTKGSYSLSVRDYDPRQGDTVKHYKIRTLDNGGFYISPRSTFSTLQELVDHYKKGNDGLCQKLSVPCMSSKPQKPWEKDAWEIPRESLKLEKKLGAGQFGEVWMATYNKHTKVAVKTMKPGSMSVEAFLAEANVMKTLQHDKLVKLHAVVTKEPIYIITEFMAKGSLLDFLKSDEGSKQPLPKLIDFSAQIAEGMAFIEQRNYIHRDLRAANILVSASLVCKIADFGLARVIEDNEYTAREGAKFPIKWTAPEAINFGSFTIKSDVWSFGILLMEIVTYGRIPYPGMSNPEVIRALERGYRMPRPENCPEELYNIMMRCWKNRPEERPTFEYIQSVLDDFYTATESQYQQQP
FGFR1, sequence (P11362 whole entry, looked up): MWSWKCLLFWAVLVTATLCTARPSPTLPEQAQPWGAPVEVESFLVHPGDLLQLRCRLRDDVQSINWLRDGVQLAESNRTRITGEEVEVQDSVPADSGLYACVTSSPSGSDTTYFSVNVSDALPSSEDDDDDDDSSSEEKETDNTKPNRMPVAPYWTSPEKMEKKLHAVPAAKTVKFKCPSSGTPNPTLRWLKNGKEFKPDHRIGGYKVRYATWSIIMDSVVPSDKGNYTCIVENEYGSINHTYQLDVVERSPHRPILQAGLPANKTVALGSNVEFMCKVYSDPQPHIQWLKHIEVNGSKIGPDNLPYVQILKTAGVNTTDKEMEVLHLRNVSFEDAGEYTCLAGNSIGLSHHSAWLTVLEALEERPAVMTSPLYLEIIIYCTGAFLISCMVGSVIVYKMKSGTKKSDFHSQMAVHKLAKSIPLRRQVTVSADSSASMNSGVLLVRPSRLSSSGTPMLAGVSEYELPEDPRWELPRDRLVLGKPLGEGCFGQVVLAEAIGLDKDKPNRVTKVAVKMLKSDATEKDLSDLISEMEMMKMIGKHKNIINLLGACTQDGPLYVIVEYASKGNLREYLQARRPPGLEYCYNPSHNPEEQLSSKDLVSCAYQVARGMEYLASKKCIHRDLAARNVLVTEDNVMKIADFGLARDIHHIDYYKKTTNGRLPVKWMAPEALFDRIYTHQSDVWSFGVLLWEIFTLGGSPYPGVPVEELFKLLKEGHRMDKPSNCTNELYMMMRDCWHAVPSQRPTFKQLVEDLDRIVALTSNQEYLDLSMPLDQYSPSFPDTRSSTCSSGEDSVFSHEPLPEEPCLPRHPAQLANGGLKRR
Grb2 SH2, sequence (P62993 whole entry, looked up): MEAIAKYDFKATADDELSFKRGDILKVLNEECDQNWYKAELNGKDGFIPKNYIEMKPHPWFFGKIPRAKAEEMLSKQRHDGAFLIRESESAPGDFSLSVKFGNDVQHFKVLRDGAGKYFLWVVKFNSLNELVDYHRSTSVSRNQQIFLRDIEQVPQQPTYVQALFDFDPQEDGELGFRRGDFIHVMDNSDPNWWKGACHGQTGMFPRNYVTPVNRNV

Sequence	phosphorylation enrichment (Fyn)	phosphorylation enrichment (FGFR1)	phosphorylation enrichment (Jak2)	phosphorylation enrichment (FGFR3)	phosphorylation enrichment (Fer (mouse))	phosphorylation enrichment (c-Abl (mouse))	phosphorylation enrichment (Fes)	phosphorylation enrichment (c-Src)	phosphorylation enrichment (EPHB1)	phosphorylation enrichment (AncSZ)	phosphorylation enrichment (EPHB2)	phosphorylation enrichment (MERTK)	phosphorylation enrichment (Hck)	SH2 binding enrichment (Grb2 SH2)	SH2 binding enrichment (c-Src SH2)	SH2 binding enrichment (SHP2-C SH2)
LNYNEYFRDLN [HPRT1_Y198_D194N]	0.996	1.29	1.57	1.38	0.878	1.01	1.6	0.518	1.4	1.82	1.12	0.559	0.879	0.985	0.443	0.672
LQEKSYIKGTS [LCTL_Y331]	0.616	1.15	0.595	1.08	0.96	0.723	1.21	0.9	0.652	1.33	1.02	0.609	0.912	1.41	0.546	1.1
LQLLGHRPVYS [CHST6_Y358_Y358H]	0.535	0.425	0.552	0.506	0.479	0.418	0.701	0.381	0.462	0.615	0.47	0.374	0.512	1.22	0.733	0.935
LRFEVYGGENE [STOX1_Y610_YF]	0.539	0.621	1.29	0.774	0.483	0.925	1.55	0.5	0.56	1.15	0.855	0.454	0.5	0.723	0.536	0.842
LRWREYQRQDF [PRKRIP1_Y90_R87W_YF]	1.01	2.28	6.28	2.67	1.67	3.64	4.93	2.67	1.91	4.24	2.29	1.69	2.04	2.02	1.34	1.82
LRYDVYGGENE [STOX1_Y610_E608D]	1.48	1.09	2.78	1.29	1.03	2.15	3.02	1.94	1.82	2.74	1.57	1.18	1.41	0.925	0.875	0.675
LSDGPYSSPFE [EPOR_Y485_N487S_YF]	0.786	0.781	0.765	0.715	0.465	0.468	0.84	0.698	0.631	1.37	0.53	0.527	0.684	0.507	1.02	0.473
LSDVIYVILRK [PMP22_Y153_G150D]	0.414	0.456	1.23	0.684	0.398	0.617	1.28	0.38	0.57	1.27	0.55	0.278	0.391	1.17	0.58	1.31
LSGFGYRLSDQ [PDCD6_Y124]	0.731	0.787	1.09	0.76	0.449	0.787	0.977	0.558	0.64	1.02	0.502	0.474	0.444	0.869	0.545	1.65
LSGVIYVILGK [PMP22_Y153_R157G]	0.828	0.867	2.72	0.977	0.754	1.87	2.88	0.796	0.93	1.73	0.588	0.771	0.885	0.746	0.653	0.801
LSIDRYHAIVF [NPSR1_Y147_YF]	0.833	1.22	2.75	1.44	0.444	0.941	1.3	0.976	0.753	1.56	1.04	1.81	0.861	0.934	1.44	0.691
LSQAKYQIRYR [CRLF1_Y272_F268S]	0.776	0.638	0.711	0.603	0.467	0.592	0.768	0.387	0.506	0.617	0.764	0.479	0.667	1.29	0.368	0.558
LSQDVYEEDSY [RET_Y900_R897Q]	0.782	0.695	1.76	1.04	0.835	1.13	1.71	0.856	0.966	1.53	1.19	0.584	0.497	1.1	0.633	0.555
LSSISYVGCSL [ADGRD1_Y571]	0.681	0.719	0.871	0.838	0.445	0.79	1.01	0.605	0.76	1.01	1.11	0.541	0.747	1.13	0.567	1.1
LVKDGYQMAQP [CSF1R_Y873]	0.357	0.45	0.512	0.527	0.462	0.691	0.723	0.396	0.39	0.609	0.392	0.32	0.499	0.874	0.634	1.01
LYDPDYMKVIL [CYP4A22_Y104]	0.72	1.54	2.27	1.07	1.48	1.36	1.54	0.988	2.9	1.96	2.61	1.51	0.787	0.693	0.504	0.73
LYSDHYSPSGR [TMPRSS12_Y23]	1.01	1.14	1.41	0.958	16.8	1.54	1.03	2.15	4.19	1.27	2.91	28.8	2.01	1.1	0.473	0.544

Sequence	phosphorylation enrichment (Fyn)	phosphorylation enrichment (FGFR1)	phosphorylation enrichment (Jak2)	phosphorylation enrichment (FGFR3)	phosphorylation enrichment (Fer (mouse))	phosphorylation enrichment (c-Abl (mouse))	phosphorylation enrichment (Fes)	phosphorylation enrichment (c-Src)	phosphorylation enrichment (EPHB1)	phosphorylation enrichment (AncSZ)	phosphorylation enrichment (EPHB2)	phosphorylation enrichment (MERTK)	phosphorylation enrichment (Hck)	SH2 binding enrichment (Grb2 SH2)	SH2 binding enrichment (c-Src SH2)	SH2 binding enrichment (SHP2-C SH2)
MAALSYVSEIG [BPIFB2_Y36_K31M]	0.432	0.447	0.804	0.584	0.394	0.615	0.733	0.431	0.397	0.642	0.521	0.371	0.4	0.819	0.478	0.857
MALDIYRASFF [ALK_Y1278_R1275L_YF]	1.06	0.558	0.715	0.767	0.599	4.88	0.953	1.05	0.599	0.936	0.584	0.776	1.22	0.803	0.518	0.768
MKALGYFAVVT [OPA1_Y498]	0.63	0.579	1.62	0.996	0.655	0.892	1.53	0.436	0.852	1.25	0.773	0.403	0.825	0.769	0.488	0.752
MPPHIYAITDT [MYH9_Y151]	1.73	0.59	0.68	0.514	0.679	0.922	0.936	2.26	1.4	0.709	0.514	4.75	1.22	0.965	7.82	0.664
MPQNEYIELHC [NSA2_Y6_R11C]	0.615	3.95	0.939	2.58	0.557	0.658	1.2	0.625	1.2	1.39	0.862	0.478	0.626	1.06	0.683	0.782
MRALIYNSSTA [PLEKHA7_Y243]	0.622	0.448	0.8	0.493	0.424	0.741	0.772	0.724	0.507	0.834	0.453	0.465	0.647	0.794	0.402	0.486
MRTMGYMPREM [CABP5_Y62_T65R]	0.438	0.397	0.606	0.508	0.411	0.507	0.594	0.356	0.369	0.494	0.374	0.435	0.405	0.785	0.48	0.576
MSDVPYVMNRG [ACAT1_Y161_N158D]	0.316	0.403	0.652	0.501	0.42	0.549	0.68	0.439	0.4	0.669	0.452	0.348	0.358	1.11	0.452	0.617
MSRDVYSIDYY [NTRK2_Y702_T704I]	8.72	4.29	0.825	3.12	1.22	0.538	0.9	6.79	1.47	1.54	1.73	7.16	4	0.918	1.34	0.804
MSRYIYSTDYY [NTRK1_Y676_D674Y]	6.8	8.47	2.09	6.27	1.89	0.879	1.41	7.15	8.88	2.16	11.4	12.3	5.21	0.906	1.53	1.82
MSSHHYDFKKF [ZNF445_Y428_YF]	0.384	0.339	0.382	0.346	0.308	0.39	0.462	0.415	0.533	0.466	0.311	0.376	0.362	0.784	0.485	0.544
NACGLYHTMNG [GATA5_Y216_K218T]	0.865	2.47	0.956	1.79	0.643	0.746	0.95	3.06	0.934	0.959	0.849	3.18	2.21	0.849	4.06	0.589
NAPNSYGRRPI [CDKN2A_Y44]	0.678	0.692	0.76	0.81	1.2	0.885	0.952	0.75	0.581	1.23	1.21	0.713	0.757	0.726	0.392	0.799
NDKLCYEVSSP [CDH13_Y66_R65C]	0.562	0.514	1	0.876	0.883	0.837	1.53	0.596	0.677	1.52	0.724	0.394	0.548	0.569	0.413	0.498
NFDLDYDSVQP [MYC_Y16_YF]	0.572	0.573	1.06	0.608	0.591	0.68	0.974	0.814	1.28	2	0.923	0.458	0.575	0.872	0.595	0.898
NFFEFYVDDPP [GCHFR_Y48_YF]	0.569	0.741	1.12	0.925	0.557	0.836	1.28	0.575	0.704	1.44	0.621	0.531	0.499	0.978	0.533	0.594
